The values below come from article doi:10.1101/2025.09.04.674342, “Tandem association of CLOCK:BMAL1 complexes on DNA enables recruitment of CBP/p300 through multivalent interactions” (bioRxiv, 2025).

“And” between values parts separate entries of the source, which are not always exact repeats. Identical values can stand only once.

Assay [1] addresses BMAL1 TAD L606A/L607A (residues 579–626) (mouse) (UniProt Q9WTL8). Description: NMR titration; 15N-1H HSQC of 100 μM 15N BMAL1 TAD WT or L606A/L607A with stepwise additions of CBP KIX (WT or 3mut), TAZ1 or TAZ2; 25°C; 10 mM MES pH 6.5, 50 mM NaCl, 10% D2O; KD from fits of concentration-dependent CSPs, apparent.
Assay [2] deals with human histone octamer in the nucleosome core particle (Widom 601 DNA with tandem E-boxes) (human) (UniProt P04908). In words: mass photometry; NCP tandem 6bp 10 nM with CLOCK:BMAL1 bHLH-PAS-AB 60 nM (1:6), 30 min at room temperature; 20 mM Tris-HCl pH 7.5, 100 mM KCl, 0.5 mM TCEP.
Assay [3] deals with BMAL1 TAD (residues 579–626) (mouse) (UniProt Q9WTL8). In words: NMR titration; 15N-1H HSQC of 100 μM 15N BMAL1 TAD WT or L606A/L607A with stepwise additions of CBP KIX (WT or 3mut), TAZ1 or TAZ2; 25°C; 10 mM MES pH 6.5, 50 mM NaCl, 10% D2O; KD from fits of concentration-dependent CSPs, apparent.
Sequence of BMAL1 TAD (residues 579–626) (mouse) (Q9WTL8 585-632): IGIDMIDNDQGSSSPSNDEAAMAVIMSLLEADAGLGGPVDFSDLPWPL

Sequence of BMAL1 TAD L606A/L607A (residues 579–626) (mouse) (Q9WTL8 585-632 L612A/L613A): as the sequence (Q9WTL8 585-632) above, with L28A, L29A counted along it

As for “CBP KIX domain (residues 586–672) (from UniProt P45481 586-672) (domain or fragment)”, the Kd in assay [1] was 190 µM.

A word on the stoichiometry N: it is a count of units in the complex or per binding partner. For the substance “CLOCK:BMAL1 bHLH-PAS-AB heterodimer (from UniProt O08785 26-395; Q9WTL8-4 62-441) (complex)”, the stoichiometry N in assay [2] was 2 and 3.

For the substance “CBP KIX Y650A/A654Q/Y658A (3mut) (from UniProt P45481 586-672) (domain or fragment)”, the Kd in assay [3] was 160 µM.
